Measurements reported in patent publication US7041871.

Target: native human CD4 on cells (SupT1 T cell line; human PBL/PBMC) (human) (UniProt P01730)
Experiment: ratio of BIAcore Ka on rCD4 to flow cytometry Ka on nCD4

chimeric Leu3a (antibody)
Ration of Ka (rCD4/nCD4): 6.1
